Results published in patent US20210101953A1 (ZHEJIANG K2 ONCOLOGY, published 2021).

T1: EpCAM protein on Skov3 cells (UniProt P16422 24-314, limits assumed)
T1 construct: whole, on cells; also called cellular level EpCAM; epithelial cell adhesion molecule
T1 sequence (looked up): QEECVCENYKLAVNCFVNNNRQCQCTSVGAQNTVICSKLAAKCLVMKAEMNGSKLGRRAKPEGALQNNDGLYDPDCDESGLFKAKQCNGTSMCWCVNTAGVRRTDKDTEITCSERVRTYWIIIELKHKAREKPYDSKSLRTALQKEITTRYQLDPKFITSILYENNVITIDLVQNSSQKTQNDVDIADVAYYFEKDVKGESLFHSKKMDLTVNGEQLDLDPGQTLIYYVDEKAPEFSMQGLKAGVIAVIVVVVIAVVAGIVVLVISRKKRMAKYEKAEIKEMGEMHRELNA

T2: recombinant human EpCAM protein (Sino biologics, Product Number 10694-H08H) (human, UniProt P16422 24-265)
T2 construct: Bought protein coated on the ELISA plate at 1 ug/ml
T2 sequence (looked up): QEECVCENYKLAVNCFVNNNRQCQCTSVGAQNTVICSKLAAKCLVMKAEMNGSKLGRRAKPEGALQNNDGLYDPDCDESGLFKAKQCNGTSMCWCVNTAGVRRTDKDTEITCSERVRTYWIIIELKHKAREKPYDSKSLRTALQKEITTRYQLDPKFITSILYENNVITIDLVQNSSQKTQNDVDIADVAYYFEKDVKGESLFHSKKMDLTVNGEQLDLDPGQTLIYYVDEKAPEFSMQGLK

B1: fusion protein EPIL-2-2303301 of the anti-EpCAM single-chain antibody and IL-2 (other)
chain: APTSSSTKKTQLQLEHLLLDLQMILNGINNYKNPKLTRMLTFKFYMPKKATELKHLQCLEEELKPLEEALNLAPSKNFHLRPRDLISNINVIVLELKGSETTFMCEYADETATIVEFLNRWITFSQSTISTLTGGGGSGGGGSGGGGSGGGGSEVQLLEQSGAELVKPGASVKISCKASGYAFTNYWLGWVKQRPGHGLEWIGDLFPGSGNTHYNERFRGKATLTADKSSSTAFMQLSSLTSEDSAVYFCARLRNWDEAMDYWGQGTTVTVSSGGGGSGGGGSGGGGSELVMTQSPSYLAASPGETITINCRASKSISKYLAWYQEKPGKTNKLLIYSGSTLQSGIPSRFSGSGSGTDFTLTISSLEPEDFAMYYCQQHNEYPYTFGGGTKLEIKHHHHHH
notes: Single chain; Expressed in HEK293 cells and purified on Ni-Sepharose
B2: fusion protein EPIL-2-2303407 of the anti-EpCAM single-chain antibody and IL-2 (other)
chain: APTSSSTKKTQLQLEHLLLDLQMILNGINNYKNPKLTRMLTFKFYMPKKATELKHLQCLEEELKPLEEALNLAPSKNFHLRPRDLISNINVIVLELKGSETTFMCEYADETATIVEFLNRWITFSQSTISTLTGGGGSGGGGSGGGGSGGGGSEVQLLEQSGAELARPGASVKLSCKASGYTFTNYGLSWVKQRPGQVLEWIGEVYPRIGNAYYNEKFKGKATLTADKSSSTASMELRSLTSEDSAVYFCARRGSYDTNYDWYFDVWGQGTTVTVSSGGGGSGGGGSGGGGSELVMTQTPLSLPVSLGDQASISCRSSQSLVHSNGNTYLHWYLQKPGQSPKLLIYKVSNRFSGVPDRFSGSGSGTDFTLKISRVEAEDLGVYFCSQSTHVPYTFGGGTKLEIKHHHHHH
notes: as for B1

Legend:
[1] = target: T1, EpCAM protein on Skov3 cells; test: staining of fixed Skov3 cells, detected with anti-human IL-2 antibody and DAB
Experimental: Skov3 cells have adherent growth in a 24-pore plate for 24 hours and are fixed for 10 minutes using 4% PFA (paraformaldehyde); 5% BSA is added to block non-specific antigens; a primary antibody of anti-human IL-2 is added for incubation for 1 hour; after washing is performed 3 times with PBST, a secondary antibody is added; after incubation is performed for 1 hour, DAB (diaminobenzidine) is added for color development; and after washing is performed with PBS, photographing is performed under a bright-field microscope.

[2] = target: T2, recombinant human EpCAM protein (Sino …); test: ELISA on coated recombinant human EpCAM, bound protein detected by its IL-2 part with an IL-2 ELISA kit
Experimental: 2. […] [0069] ii. IL-2 level detection: an IL-2 ELISA commercial kit (Manufacturer: Biolegend; Product Number 431801) is adopted; the brief steps include adding a primary antibody of anti-human IL-2, incubating for 1 hour and then adding a horseradish peroxidase labeled secondary antibody to obtain a […] signal by TMB color development. [0070] iii. Data processing: a standard curve is obtained by using an IL-2 standard product included in the kit, and the IL-2 signal level corresponding to the amount of protein bound to EpCAM is calculated, which represents the level of the protein bound to EpCAM.

| binding result [1] | binding result [2] | Binder |
| --- | --- | --- |
| binds | binds | B1 |
| binds | binds | B2 |
